Assay results taken from US20140303084.
Residue numbers refer to the chain shown, from its start.

Assays:
[1] = test system: T1, SKQGRPISPDrRAAGKLTCLASYCWLFWTGI
T1 sequence: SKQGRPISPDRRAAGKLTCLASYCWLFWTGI

RLTCLASYCWLF = test system: T2, RLTCLASYCWLF
T2 sequence: RLTCLASYCWLF

[2] = test system: T3, RRAPGKLT-Dap-LASY-Asp-WLFWTGIA-COOH
T3 sequence: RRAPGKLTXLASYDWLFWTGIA

KRYVYRQMCLVSACWLLQLGYA = test system: T4, KRYVYRQMCLVSACWLLQLGYA
T4 sequence: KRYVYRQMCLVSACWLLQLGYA

[3] = test system: T5, rRAPGKLTCLASYCWLFWTGIA-COOH
T5 sequence: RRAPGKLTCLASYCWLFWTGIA

[4] = test system: T6, RRAPGKLTCLASYCWLF WSGIA PQPPNMRPSV
T6 sequence: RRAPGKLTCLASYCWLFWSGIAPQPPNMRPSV

[5] = test system: T7, RRAPGKLTCLASYCWLFWTGI-MeAla
T7 sequence: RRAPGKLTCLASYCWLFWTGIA

VSGTGRLTCVASYCWMFQLGIF = test system: T8, VSGTGRLTCVASYCWMFQLGIF
T8 sequence: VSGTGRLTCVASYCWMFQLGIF

[6] = test system: T9, PEG16-Lys(PEG2-Biotin)-PEG16-rRAPGKLTCLASYCWLFWTGIA
T9 sequence: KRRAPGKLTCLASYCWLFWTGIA

[7] = test system: T10, RRAPGKLTCLASYACLFWTGIA-COOH
T10 sequence: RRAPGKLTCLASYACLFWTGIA

[8] = test system: T11, RRAPGKLTCLASYCWLK(PEG2-Biotin)WTGIA
T11 sequence: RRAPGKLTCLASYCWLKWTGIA

[9] = test system: T12, PRIRTVGPGSRSASGKLTCLASYCWLFATGIA
T12 sequence: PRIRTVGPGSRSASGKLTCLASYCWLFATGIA

rRAAGKATCLASACW LAATGIA = test system: T13, rRAAGKATCLASACW LAATGIA
T13 sequence: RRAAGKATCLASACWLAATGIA

[10] = test system: T14, PSGWAGWAPG RREPG KLTCLASYCWLFWTGIA
T14 sequence: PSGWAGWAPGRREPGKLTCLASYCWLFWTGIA

[11] = test system: T15, R-MeArg-APGKLTCLASYCWLFWTGIA
T15 sequence: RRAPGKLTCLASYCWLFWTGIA

[12] = test system: T16, SLISMTNPSG RRVPG KLTCLASYCWLFWTGIA
T16 sequence: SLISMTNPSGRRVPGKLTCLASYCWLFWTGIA

GKLQCLASYCWLFWTGIA = test system: T17, GKLQCLASYCWLFWTGIA
T17 sequence: GKLQCLASYCWLFWTGIA

compound 24 = test system: T18, compound 24
T18 sequence: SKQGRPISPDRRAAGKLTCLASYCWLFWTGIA

compound 21 = test system: T19, compound 21
T19 sequence: T12 sequence with A28W

[13] = test system: T20, RRAPGKLTCLASYCWLF WTGWC RDTASHACDS
T20 sequence: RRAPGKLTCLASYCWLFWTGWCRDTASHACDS

[14] = test system: T21, RRAPGKLTCLASYCWLF WTGYA SGKPSRVYVI
T21 sequence: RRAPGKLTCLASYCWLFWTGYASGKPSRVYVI

human Factor IXa
Vmax, FXa generation assay [1]: > 3
Vmax, FXa generation assay (RLTCLASYCWLF): > 2
Vmax, FXa generation assay [2]: > 0.8
Vmax, FXa generation assay; (++) means 1-2 (KRYVYRQMCLVSACWLLQLGYA): (++)
Vmax, FXa generation assay [3]: > 2
Vmax, FXa generation assay [4]: > 3
Vmax, FXa generation assay; (++) means 1-2 [5]: (++)
Vmax, FXa generation assay; (++) means 1-2 (VSGTGRLTCVASYCWMFQLGIF): (++)
Vmax, FXa generation assay [6]: > 3
Vmax, FXa generation assay [7]: > 2
Vmax, FXa generation assay [8]: > 2
Vmax, FXa generation assay [9]: > 3
Vmax, FXa generation assay (rRAAGKATCLASACW LAATGIA): > 3
Vmax, FXa generation assay [10]: > 2
Vmax, FXa generation assay; (++) means 1-2 [11]: (++)
Vmax, FXa generation assay [12]: > 2
Vmax, FXa generation assay (GKLQCLASYCWLFWTGIA): > 2
Vmax, FXa generation assay with hFIXa (compound 24): > 3
Vmax, FXa generation assay with hFIXa (compound 21): > 3
Vmax, FXa generation assay; (++) means 1-2 [13]: (++)
Vmax, FXa generation assay [14]: > 3
